Assays:
[1] = target: T1, overlapping peptide P3 (12 amino acids, FIG. 3 panel A) (human); test: ELISA: 500 ng peptide coated per well, 29E4 titrated 0-1000 ng/mL, HRP goat anti-rabbit Ig 1:16,000, ABS 450 nm, duplicates
T1 construct: The overlapping 12-mer is meant here
T1 peptide: MSEPNIPFPPQG
From the text: (§1) HRP Goat anti-rabbit Ig was applied at 1:16,000 dilution in all reactions.
(§2) Peptides were synthesized to achieve ≥70% HPLC purity by a commercial vendor (GenScript Biotech, Piscataway, NJ). Peptides were reconstituted in either water, or with addition of acetonitrile, methanol, 10% acetic acid, or DMSO, depending on the overall charge of each peptide. Key residues required for mAb binding were probed by ELISA using overlapping peptides, truncated peptides and alanine substituted peptides. Reactions were performed in duplicate using NUNC 96-well flatbottom MaxiSorp plates (Thermo Scientific). After coating each well with 500 ng of peptide in 100 μL coating buffer (50 mM NaHCO₃, pH 9.6), the plates were sealed and incubated at 4° C. overnight. […] Plates were then washed once with wash buffer, incubated with 100 μL mAb 29E4 (serially diluted from 1 mg/mL) for 1 hour at 37° C. Plates were further washed four times with wash buffer, and then incubated at 37° C. with 100 μL of a horse radish peroxidase (HRP)-conjugated secondary antibody against the primary antibody, diluted 1:16,000 according to manufacturer's protocols (KPL, Inc., Gaithersburg, MD). After washing four times with wash buffer, 100 μL of K-Blue Aqueous TMB substrate (Neogen, Lexington, KY) was added to the plates and incubated uncovered for 30 minutes at room temperature. To stop the reaction, 100 μL of 2 N Sulphuric acid was added to each well and absorbance were measured immediately at 450 nm. All dilutions of reagents were performed in ELISA diluent (20% NGS in 1×PBS with 0.1% Triton-X 100).

[2] = target: T2, overlapping peptide P4 (12 amino acids, FIG. 3 panel A) (human); test: as above
T2 peptide: PNIPFPPQGFKQ
From the text: as §1, §2

[3] = target: T3, overlapping peptide P5 (12 amino acids, FIG. 3 panel A) (human); test: as above
T3 construct: The overlapping 12-mer is meant here
T3 peptide: PFPPQGFKQEYH
From the text: as §1, §2

[4] = target: T4, overlapping peptide P6 (12 amino acids, FIG. 3 panel A) (human); test: as above
T4 construct: The overlapping 12-mer is meant here
T4 peptide: PQGFKQEYHDPV
From the text: as §1, §2

[5] = target: T5, overlapping peptide P7 (12 amino acids, FIG. 3 panel A) (human); test: as above
T5 construct: The overlapping 12-mer is meant here
T5 peptide: FKQEYHDPVYEH
From the text: as §1, §2

[6] = target: T6, ETV1 immunogenic peptide P1 (human); test: as above
T6 construct: 27 amino acid peptide, ETV1 residues 212-238; also called immunogen peptide; ETV1 P1 peptide
T6 sequence (peptide, as listed by the source): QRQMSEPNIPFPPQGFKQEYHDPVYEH
From the text: as §1, §2

[7] = target: T7, P3 (alanine substituted, FIG. 3 panel E); test: ELISA: 500 ng peptide coated per well, 29E4 at 40 ng/mL, HRP goat anti-rabbit Ig 1:16,000, ABS 450 nm, duplicates [CONT. 2]
T7 construct: not the overlapping peptide P3 of panel A; also called R213 to alanine
T7 sequence (peptide, as listed by the source): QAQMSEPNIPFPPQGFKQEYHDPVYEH
From the text: as §1, §2

[8] = target: T8, P7 (alanine substituted, FIG. 3 panel E); test: as above
T8 construct: not the overlapping peptide P7 of panels A and C; also called E217 to alanine
T8 sequence (peptide, as listed by the source): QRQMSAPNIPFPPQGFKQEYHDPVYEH
From the text: as §1, §2

[9] = target: T9, P9 (alanine substituted, FIG. 3 panel E); test: as above
T9 construct: also called N219 to alanine
T9 sequence (peptide, as listed by the source): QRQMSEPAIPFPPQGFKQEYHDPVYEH
From the text: as §1, §2

[10] = target: T10, P10 (alanine substituted, FIG. 3 panel E); test: as above
T10 construct: also called I220 to alanine
T10 sequence (peptide, as listed by the source): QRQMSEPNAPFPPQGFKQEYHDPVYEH
From the text: as §1, §2

[11] = target: T11, P16 (alanine substituted, FIG. 3 panel E); test: as above
T11 construct: also called G226 to alanine
T11 sequence (peptide, as listed by the source): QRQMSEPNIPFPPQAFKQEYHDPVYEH
From the text: as §1, §2

[12] = target: T12, P20 (alanine substituted, FIG. 3 panel E); test: as above
T12 construct: also called E230 to alanine
T12 sequence (peptide, as listed by the source): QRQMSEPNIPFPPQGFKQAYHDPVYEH
From the text: as §1, §2

[13] = target: T13, P26 (alanine substituted, FIG. 3 panel E); test: as above
T13 construct: also called Y236 to alanine
T13 sequence (peptide, as listed by the source): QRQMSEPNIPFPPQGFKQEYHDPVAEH
From the text: as §1, §2

[14] = target: T14, P28 (alanine substituted, FIG. 3 panel E); test: as above
T14 construct: also called H238 to alanine
T14 sequence (peptide, as listed by the source): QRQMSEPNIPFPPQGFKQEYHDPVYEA
From the text: as §1, §2

[15] = target: T15, alanine substituted peptide P12 (F222 to alanine) (human); test: as above
T15 construct: The entry already carries the substitution
T15 sequence (peptide, as listed by the source): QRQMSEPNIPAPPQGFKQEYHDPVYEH
From the text: as §1, §2

B1: ETV1 rabbit monoclonal antibody (29E4) (antibody, V domains shown)
VH: QELEESGGDLVKPGASLTLTCTASGFFFSAENHICWVRQAPGKGLEWIGCVYIGSYVGGSGDPYYASWAKGRFTISKTSSTTVTLQMSSLTAADTATYFCARDLGSLWGPGTLVTVSS
VL: DVVMTQTASSVSAAVGGTVTIACQSSQSVYDNNNLAWFQQKPGQPPKRLIYSASTLASGVSSRFKGSGYGTQFTLTISDVQCDDAATYYCVGAFSGYIFVFGGGTEVVVK
notes: constant regions are not; also called 29E4 mAb; ETV1 29E4 mAb
- binding result [1]: binds
- EC50 (read off the curve) [2]: ~0.1 µg/mL
- binding result [3]: binds
- binding result [4]: no binding (tested: 1000 ng/mL)
- binding result [5]: no binding (tested: 1000 ng/mL)
- EC50 (read off the curve) [6]: ~0.02 µg/mL
- binding result [7]: binds
- binding result [8]: binds
- binding result [9]: binds
- binding result [10]: binds
- binding result [11]: binds
- binding result [12]: binds
- binding result [13]: binds
- binding result [14]: binds
- binding result [15]: no binding (tested: 40 ng/mL)

Source: patent US20260227403A1 (HENRY M JACKSON FOUNDATION FOR THE ADVANCEMENT OF MILITARY …, published 2026)
